Changes are numbered by the printed parent chain. In names and notes the source's numbering stands. One block for each binder: values may come before it.
Columns and labels:
[1] = target: T1, rHuman Erythropoietin R/Fc Chimera, CF (R&D Systems Cat#963-ER) (human, UniProt P19235 25-250); experiment: Multispot ECL (MSD), antigen spotted on plate, Fab 210 nM; blank spot 833
T1 construct: Bought recombinant protein; also called EPO R/Fc; Epo R; Fc part of the bought chimera not given
T1 sequence (looked up): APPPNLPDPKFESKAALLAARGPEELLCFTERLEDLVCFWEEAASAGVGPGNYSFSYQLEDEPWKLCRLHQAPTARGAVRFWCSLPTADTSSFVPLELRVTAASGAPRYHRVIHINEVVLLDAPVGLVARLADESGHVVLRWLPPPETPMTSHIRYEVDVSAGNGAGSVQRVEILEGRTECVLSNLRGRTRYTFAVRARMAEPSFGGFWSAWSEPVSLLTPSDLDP

[2] = target: T2, rHuman EGF R/Fc Chimera, CF (R&D Systems Cat#344-ER) (human, UniProt P00533 25-645); experiment: as above
T2 construct: Bought recombinant protein; also called epidermal growth factor receptor; Fc part of the bought chimera not given

[3] = target: T3, rHuman HGF R/c-MET/Fc Chimera, CF (R&D Systems Cat#358-MT/CF) (human, UniProt P08581 25-932); experiment: as above
T3 construct: Bought recombinant protein; also called HGF R/Fc; hepatocyte growth factor receptor; Fc part of the bought chimera not given
T3 sequence (P08581 25-932, change not shown): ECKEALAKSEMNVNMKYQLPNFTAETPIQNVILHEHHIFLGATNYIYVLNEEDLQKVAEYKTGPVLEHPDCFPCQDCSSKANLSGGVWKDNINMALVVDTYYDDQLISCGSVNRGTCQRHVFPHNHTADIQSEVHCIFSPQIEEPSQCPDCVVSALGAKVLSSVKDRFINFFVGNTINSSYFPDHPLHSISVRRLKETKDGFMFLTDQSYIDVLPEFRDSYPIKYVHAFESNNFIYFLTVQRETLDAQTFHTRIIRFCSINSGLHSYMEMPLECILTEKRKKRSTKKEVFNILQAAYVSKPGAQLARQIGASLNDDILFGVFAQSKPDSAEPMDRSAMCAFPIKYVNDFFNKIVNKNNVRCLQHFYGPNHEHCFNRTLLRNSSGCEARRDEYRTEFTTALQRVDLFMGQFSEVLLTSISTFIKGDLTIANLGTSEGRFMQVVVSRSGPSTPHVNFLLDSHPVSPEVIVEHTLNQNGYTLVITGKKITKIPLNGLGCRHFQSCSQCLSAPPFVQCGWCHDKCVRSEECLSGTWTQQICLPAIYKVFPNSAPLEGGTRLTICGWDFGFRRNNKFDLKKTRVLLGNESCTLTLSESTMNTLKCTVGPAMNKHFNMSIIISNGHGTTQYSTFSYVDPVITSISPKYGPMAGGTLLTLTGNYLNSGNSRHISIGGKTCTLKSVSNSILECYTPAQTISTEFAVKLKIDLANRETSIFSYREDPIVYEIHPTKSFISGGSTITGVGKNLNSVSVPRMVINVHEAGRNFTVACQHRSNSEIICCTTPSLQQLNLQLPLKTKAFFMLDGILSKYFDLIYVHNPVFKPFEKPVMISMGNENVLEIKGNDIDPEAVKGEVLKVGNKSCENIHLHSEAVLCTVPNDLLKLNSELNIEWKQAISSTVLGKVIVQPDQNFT

[4] = target: T4, rHuman CD44/Fc Chimera, CF (R&D Systems Cat#3660-CD) (human, UniProt P16070 21-220); experiment: as above
T4 construct: Bought recombinant protein; Fc part of the bought chimera not given

[5] = target: T5, rHuman ErbB2/Fc Chimera, CF (R&D Systems Cat#1129-ER) (human, UniProt P04626 23-652); experiment: as above
T5 construct: Bought recombinant protein; also called human epidermal growth factor 2 receptor; Fc part of the bought chimera not given

[6] = target: T1, rHuman Erythropoietin R/Fc Chimera, CF …; experiment: Multispot ECL (MSD), antigen spotted on plate, Fab 52.5 nM; blank spot 467
[7] = target: T2, rHuman EGF R/Fc Chimera, CF (R&D …); experiment: as above
[8] = target: T3, rHuman HGF R/c-MET/Fc Chimera, CF (R&D …); experiment: as above
[9] = target: T4, rHuman CD44/Fc Chimera, CF (R&D Systems …); experiment: as above
[10] = target: T5, rHuman ErbB2/Fc Chimera, CF (R&D …); experiment: as above
[11] = target: T1, rHuman Erythropoietin R/Fc Chimera, CF …; experiment: Multispot ECL (MSD), antigen spotted on plate, Fab 13.1 nM; blank spot 376
[12] = target: T2, rHuman EGF R/Fc Chimera, CF (R&D …); experiment: as above
[13] = target: T3, rHuman HGF R/c-MET/Fc Chimera, CF (R&D …); experiment: as above
[14] = target: T4, rHuman CD44/Fc Chimera, CF (R&D Systems …); experiment: as above
[15] = target: T5, rHuman ErbB2/Fc Chimera, CF (R&D …); experiment: as above
[16] = target: T1, rHuman Erythropoietin R/Fc Chimera, CF …; experiment: Multispot ECL (MSD), antigen spotted on plate, Fab 3.3 nM; blank spot 359
[17] = target: T2, rHuman EGF R/Fc Chimera, CF (R&D …); experiment: as above
[18] = target: T3, rHuman HGF R/c-MET/Fc Chimera, CF (R&D …); experiment: as above
[19] = target: T4, rHuman CD44/Fc Chimera, CF (R&D Systems …); experiment: as above
[20] = target: T5, rHuman ErbB2/Fc Chimera, CF (R&D …); experiment: as above
[21] = target: T6, Recombinant Human DLL4 (R&D Systems Cat#1506-D4/CF) (human, UniProt Q9NR61 27-524); experiment: 96-well plate ECL
T6 construct: bought recombinant protein; also called rHuman DLL4; delta-like protein 4

[22] = target: T6, Recombinant Human DLL4 (R&D Systems …); experiment: Multispot ECL
[23] = target: T7, Recombinant Human DLL4 (delta-like protein 4) (human, UniProt Q9NR61 27-524); experiment: ECL (MSD) binding assay, Fab on immobilised recombinant human DLL4
T7 construct: Bought recombinant protein; also called rHuman DLL4

ECL signal at 210 nM Fab [1]: 2120 | ECL signal at 210 nM Fab [2]: 1620 | ECL signal at 210 nM Fab [3]: 2060 | ECL signal at 210 nM Fab [4]: 1400 | ECL signal at 210 nM Fab [5]: 1980 | ECL signal at 52.5 nM Fab [6]: 1320 | ECL signal at 52.5 nM Fab [7]: 1110 | ECL signal at 52.5 nM Fab [8]: 1290 | ECL signal at 52.5 nM Fab [9]: 897 | ECL signal at 52.5 nM Fab [10]: 1510 | ECL signal at 13.1 nM Fab [11]: 776 | ECL signal at 13.1 nM Fab [12]: 824 | ECL signal at 13.1 nM Fab [13]: 981 | ECL signal at 13.1 nM Fab [14]: 708 | ECL signal at 13.1 nM Fab [15]: 930 | ECL signal at 3.3 nM Fab [16]: 695 | ECL signal at 3.3 nM Fab [17]: 847 | ECL signal at 3.3 nM Fab [18]: 849 | ECL signal at 3.3 nM Fab [19]: 621 | ECL signal at 3.3 nM Fab [20]: 1030
B1: Fab VH4-31_IGHD2-15*01_IGHJ2*01 & V1-4_IGLJ4*01 (Fab, V domains shown)
VH: QVQLQESGPGLVKPSQTLSLTCTVSGGSISSGGYYWSWIRQHPGKGLEWIGYIYYSGSTYYNPSLKSRVTISVDTSKNQFSLKLSSVTAADTAVYYCAREGYCSGGSCYSYWYFDLWGRGTLVTVSS
VL: QSALTQPASVSGSPGQSITISCTGTSSDVGGYNYVSWYQQHPGKAPKLMIYEVSNRPSGVSNRFSGSKSGNTASLTISGLQAEDEADYYCSSYTSSSTLFVFGGGTQLIIL
notes: Tested as a Fab made in E. coli; The heavy chain variable region was cloned into Plasmid A (CH1 constant region, His6 and Flag tags); The lambda light chain variable region was cloned into Plasmid E (lambda CL); Only the variable domains are tied to this Fab by name

fold ECL signal against the parent Fab [21]: ~2 fold
B2: Fab VH5-51_IGHD5-18*01>3_IGHJ4*01 G100K & V3-4_IGLJ1*01 (Fab, V domains shown)
VH: EVQLVQSGAEVKKPGESLKISCKGSGYSFTSYWIGWVRQMPGKGLEWMGIIYPGDSDTRYSPSFQGQVTISADKSISTAYLQWSSLKASDTAMYYCARRKYSYGYDYFDYWGQGTLVTVSS
VL: QTVVTQEPSFSVSPGGTVTLTCGLSSGSVSTSYYPSWYQQTPGQAPRTLIYSTNTRSSGVPDRFSGSILGNKAALTITGAQADDESDYYCVLYMGSGISYVFGTGTKVTVL
notes: Fab

fold ECL signal against the parent Fab [21]: ~2 fold
B3: Fab VH5-51_IGHD5-18*01>3_IGHJ4*01 G104T & V3-4_IGLJ1*01 (Fab, V domains shown)
VH: B2 VH with K100G, G104T
VL: B2 VL
notes: Fab

binding result [22]: no binding
B4: Fab VH1-46_IGHD6-6*01_IGHJ1*01 & A27_IGKJ1*01 (Fab, V domains shown)
VH: QVQLVQSGAEVKKPGASVKVSCKASGYTFTSYYMHWVRQAPGQGLEWMGIINPSGGSTSYAQKFQGRVTMTRDTSTSTVYMELSSLRSEDTAVYYCAREEYSSSSAEYFQHWGQGTLVTVSS
VL: not shown
notes: Fab; also called non-Hit

binding result [23]: no binding
B5: Fab VH1-46_IGHD6-6*01_IGHJ1*01 & A27_IGKJ1*01 (Fab, V domains shown)
VH: B4 VH
VL: not shown
notes: Germline Fab from the combinatorial library, with CH1 (plus His6 and Flag tags) and a kappa constant region from the expression plasmids

binding result [22]: no binding
B6: Fab VH1-46_IGHD6-6*01_IGHJ1*01 & L25_IGKJ1*01 (Fab, V domains shown)
VH: B4 VH
VL: EIVMTQSPATLSLSPGERATLSCRASQSVSSSYLSWYQQKPGQAPRLLIYGASTRATGIPARFSGSGSGTDFTLTISSLQPEDFAVYYCQQDYNLPPWTFGQGTKVEIKR
notes: Fab; also called non-Hit

binding result [23]: no binding
B7: Fab VH1-46_IGHD6-6*01_IGHJ1*01 & L25_IGKJ1*01 (Fab, V domains shown)
VH: B4 VH
VL: B6 VL
notes: as for B5
